# Target: recombinant EGF (rEGF) protein with SV5 and 6xHis tags (human)
# Assay: ELISA; titration ELISA: plates coated with rEGF at 5 µg/mL (BSA coating for negative controls, at the maximum tested nanobody concentration), blocked with 3% skimmed milk, biotinylated nanobodies serially diluted 1 h at RT, detected with streptavidin-HRP; KD estimated by the fitting function of ref. 37; triplicates
row,Binder,Kd
1,"recombinant anti-EGF nanobody D6-4, biotinylated (VHH) VHH: QVQLVESGGGSVQAGGSLRLSCTASGTRRYKYNVFDLGWFRQAPGQEREAVAAISTGGGRTYYADSVKGRFTISRDNAKNTVTLQMNNLKPEDTAIYYCAARRTNNANFRYWGQGTQVTVS",370 nM
2,"recombinant anti-EGF nanobody A8-1, biotinylated (VHH) VHH: QVQLVESGGGSVQAGGSLRLSCTASGNSNYQYPHFDLGWFRQAPGQEREAVAAISSGGGRTYYADSVKGRFTISRDNAKNTVTLQMNNLKPEDTAIYYCAAVGSRTRNYRYWGQGTQVTVS",240 nM
